Tests used:
human Sdc2 [1] = biological target: T1, human Sdc2 (human, UniProt P34741 19-144, limits assumed); assay: Octet tandem binning; saturating Ab m3 19844-R3-P1-C02 (row boxed, self-self >0.09)
T1 construct: Antigen of the Octet tandem binning, loaded on biosensors at 100 nM; also called huSdc2; hSdc2
Protocol: (§1) These studies were performed in a tandem binning assay format with human Sdc2, used as the antigen (concentration of 100 nM). Antigen loaded biosensors were dipped in a saturating solution of antibody (25 μg/ml) for 240 seconds followed by a competing antibody at 5 μg/ml for 180 seconds. […] Since saturation is not possible to achieve saturation with these clones, they are removed in as ligands, but retained in the analyte orientation in the analysis. A table summarizing the results of epitope binning of the 18 antibodies against huSdc2 is illustrated in FIG. 30. Data is normalized, where the raw binding signal from Competing Ab for a given Saturating Ab is divided by binding in the absence a […] (“buffer”). The threshold determining the matrix color is adjustable and dependent upon Ag-Ab binding. […] Table rows are based on similar looking binding profiles. Note that the coloration/cutoff is subjective, yellow color added to represent injections with ambiguous or very weak sandwiching signals. FIG. 31 illustrates a clustergram of the epitope binning studies, which was generated from the normalized binning data by importation into the statistical computing program R (The R Project for Statistical Computing: at r-project.org) and generation of a clustergram with the pvclust package.

human Sdc2 [2] = biological target: T1, human Sdc2; assay: Octet tandem binning; saturating Ab m1 19838-20H19-AB
Protocol: as §1

[3] = biological target: human Sdc2 on Human Umbilical Vein Endothelial Cells (HUVEC) (human, UniProt P34741 19-201); assay: cell-based or functional assay
human Sdc2 on Human Umbilical Vein Endothelial Cells (HUVEC), sequence (P34741 19-201 limits assumed): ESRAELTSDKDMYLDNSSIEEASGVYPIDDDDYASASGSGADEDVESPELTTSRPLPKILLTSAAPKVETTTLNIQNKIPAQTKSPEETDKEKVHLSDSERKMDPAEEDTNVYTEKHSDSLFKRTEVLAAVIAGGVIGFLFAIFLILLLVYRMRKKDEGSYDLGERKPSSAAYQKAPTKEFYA

human Sdc2 [4] = biological target: T1, human Sdc2; assay: Octet tandem binning; Buffer in place of a saturating Ab
Protocol: as §1

human Sdc2 [5] = biological target: T1, human Sdc2; assay: Octet tandem binning; saturating Ab m7 19844-R3-P1-E07
Protocol: as §1

human Sdc2 [6] = biological target: T1, human Sdc2; assay: Octet tandem binning; saturating Ab f9 19838-6-E17-A
Protocol: as §1

human Sdc2 [7] = biological target: T1, human Sdc2; assay: Octet tandem binning; saturating Ab m2 19838-8G17-A
Protocol: as §1

human Sdc2 [8] = biological target: T1, human Sdc2; assay: Kd (human Sdc2), summary table of the mAbs
human Sdc2 [9] = biological target: T1, human Sdc2; assay: Octet tandem binning; saturating Ab f11 19838-20-H19-A
Protocol: as §1

human Sdc2 [10] = biological target: T1, human Sdc2; assay: Octet tandem binning; saturating Ab f8 19844-R4M-P2-C02
Protocol: as §1

human Sdc2 [11] = biological target: T1, human Sdc2; assay: Octet tandem binning; saturating Ab m6 19838-20H19-AA (marked non-binding ligand)
Protocol: as §1

human Sdc2 [12] = biological target: T1, human Sdc2; assay: Octet tandem binning; saturating Ab m4 19844-R4M-P1-A10
Protocol: as §1

human Sdc2 [13] = biological target: T1, human Sdc2; assay: Octet tandem binning; saturating Ab f12 19838-6-N03-A
Protocol: as §1

human Sdc2 [14] = biological target: T1, human Sdc2; assay: Octet tandem binning; saturating Ab f4 19844-R3-P3-C11
Protocol: as §1

human Sdc2 [15] = biological target: T1, human Sdc2; assay: Octet tandem binning; saturating Ab f7 19844-R3-P3-A12
Protocol: as §1

human Sdc2 [16] = biological target: T1, human Sdc2; assay: Octet tandem binning; saturating Ab f10 19838-10-I12-A
Protocol: as §1

human Sdc2 [17] = biological target: T1, human Sdc2; assay: Octet tandem binning; saturating Ab m5 19844-R4M-P3-A12 (row boxed, self-self >0.09)
Protocol: as §1

human Sdc2 [18] = biological target: T1, human Sdc2; assay: Octet tandem binning; saturating Ab f5 19844-R4M-P3-E06
Protocol: as §1

human Sdc2 [19] = biological target: T1, human Sdc2; assay: Octet tandem binning; saturating Ab m8 19844-R4M-P1-B01 (marked non-binding ligand)
Protocol: as §1

human Sdc2 [20] = biological target: T1, human Sdc2; assay: Octet tandem binning; saturating Ab f6 19844-R3-P3-E09
Protocol: as §1

human Sdc2 [21] = biological target: T1, human Sdc2; assay: Octet tandem binning; saturating Ab f3 19838-6N03-A
Protocol: as §1

T1 sequence (P34741 19-144 limits assumed): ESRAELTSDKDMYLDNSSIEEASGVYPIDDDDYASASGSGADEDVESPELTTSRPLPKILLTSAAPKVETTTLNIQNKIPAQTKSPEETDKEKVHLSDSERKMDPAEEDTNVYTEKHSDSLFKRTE

B1: 6-N03-A (antibody, mouse IgG1, kappa, V domains shown)
VH: EVQLVESGGGLVKPGGSLKLSCEASGITFSNYVMSWVRQTPEKRLEWVATISDGGSYTYYPDNVKGRFTISRDNAKNNLYLQMSHLKSEDTAMYYCVRDRYDYDGRVYAMDYWGQGTSVTVSS
VL: DVVMTQTPLSLPVSLGDQASISCRSSQSLVHSNGDTYLHWYLQKPGQSPKLLIYKVSNRFSGVPDRFSGSGSGTDFTLKITRVEAEDLGVYFCSQSTHVPWTFGGGTKLEIKR
B1 was tested, and the “raw competing-Ab binding signal” value (human Sdc2 [1]) was 0.397, the “raw competing-Ab binding signal” value (human Sdc2 [2]) was 0.0812 and the “% Inhibition of VEGFA-induced permeability at 24hrs (20ug/ml)” value (shortened to “% Inhibition”) [3] was 50%. For the same binder, the “raw competing-Ab binding signal” value (human Sdc2 [4]) was 0.477, the “raw competing-Ab binding signal” value (human Sdc2 [5]) was 0.486 and the “raw competing-Ab binding signal” value (human Sdc2 [6]) was 0.422. For the same binder, the “raw competing-Ab binding signal” value (human Sdc2 [7]) was -0.0492, the Kd (human Sdc2 [8]) was 1.17 nM and the “raw competing-Ab binding signal” value (human Sdc2 [9]) was 0.0908. The “raw competing-Ab binding signal” value (human Sdc2 [10]) was 0.418, the “raw competing-Ab binding signal” value (human Sdc2 [11]) was 0.487 and the “raw competing-Ab binding signal” value (human Sdc2 [12]) was 0.374. For the same binder, the “raw competing-Ab binding signal” value (human Sdc2 [13]) was 0.0194, the “raw competing-Ab binding signal” value (human Sdc2 [14]) was 0.301 and the “raw competing-Ab binding signal” value (human Sdc2 [15]) was 0.179. For the same binder, the “raw competing-Ab binding signal” value (human Sdc2 [16]) was 0.0887, the “raw competing-Ab binding signal” value (human Sdc2 [17]) was 0.472 and the “raw competing-Ab binding signal” value (human Sdc2 [18]) was 0.463. For the same binder, the “raw competing-Ab binding signal” value (human Sdc2 [19]) was 0.497 and the “raw competing-Ab binding signal” value (human Sdc2 [20]) was 0.346.

B2: 19838-6-N03-A (antibody, IgG1, V domains shown)
VH: EVQLVESGGGLVKPGGSLKLSCEASGITFSNYVMSWVRQTPEKRLEWVATISDGGSYTYYPDNVKGRFTISRDNAKNNLYLQMSHLKSEDTAMYYCVRDRYDYDGRVYAMDYWGQGTSVTVSS
VL: DVVMTQTPLSLPVSLGDQASISCRSSQSLVHSNGDTYLHWYLQKPGQSPKLLIYKVSNRFSGVPDRFSGSGSGTDFTLKITRVEAEDLGVYFCSQSTHVPWTFGGGTKLEIKR
For B2, the “raw competing-Ab binding signal” value (human Sdc2 [1]) was 0.332, the “raw competing-Ab binding signal” value (human Sdc2 [2]) was 0.0556 and the “raw competing-Ab binding signal” value (human Sdc2 [4]) was 0.413. For the same binder, the “raw competing-Ab binding signal” value (human Sdc2 [5]) was 0.48, the “raw competing-Ab binding signal” value (human Sdc2 [6]) was 0.378 and the “raw competing-Ab binding signal” value (human Sdc2 [7]) was -0.0312. For the same binder, the “raw competing-Ab binding signal” value (human Sdc2 [9]) was 0.122, the “raw competing-Ab binding signal” value (human Sdc2 [10]) was 0.326 and the “raw competing-Ab binding signal” value (human Sdc2 [11]) was 0.501. The “raw competing-Ab binding signal” value (human Sdc2 [12]) was 0.336, the “raw competing-Ab binding signal” value (human Sdc2 [14]) was 0.197 and the “raw competing-Ab binding signal” value (human Sdc2 [15]) was 0.162. The “raw competing-Ab binding signal” value (human Sdc2 [16]) was 0.0734, the “raw competing-Ab binding signal” value (human Sdc2 [17]) was 0.435 and the “raw competing-Ab binding signal” value (human Sdc2 [18]) was 0.463. For the same binder, the “raw competing-Ab binding signal” value (human Sdc2 [21]) was 0.0058, the “raw competing-Ab binding signal” value (human Sdc2 [19]) was 0.388 and the “raw competing-Ab binding signal” value (human Sdc2 [20]) was 0.31.

B3: TP-43327F (antibody, human IgG1, kappa, V domains shown)
VH: QVQLVESGGGVVQPGGSLRLSCAASGFTFNIYAMHWVRQAPGKGLEWVARIGSKSSYYATYYADSVKGRFTISRDNSKNTLYLQMNSLRTEDTAVYYCVSGKGDWGQGTLVTVSS
VL: DVVMTQSPLSLPVTLGQPASISCRSSQSLLAGDGKTYLNWFLQRPGQSPRRLIYLVSKLDSGVPDRFSGSGSGTDFTLKISRVEAEDVGVYYCWQGTHFPWTFGAGTRLEIKR
For B3, the “% Inhibition” value [3] was 100% and the Kd (human Sdc2 [8]) was under 0.1 nM.

B4: TP-43329F (antibody, human IgG1, kappa, V domains shown)
VH: QVQLVESGGGVVQPGGSLRLSCAASGFTFNIYAMHWVRQAPGKGLEWVARIGSKSSYYATYYADSVKGRFTISRDNSKNTLYLQMNSLRTEDTAVYYCVSGKGDWGQGTLVTVSS
VL: DVVMTQSPLSLPVTLGQPASISCRSSQSLLAGDGKTYLNWFQQRPGQSPRRLIYLVSKLDSGVPDRFSGSGSGTDFTLKISRVEAEDVGVYYCWQGTHFPWTFGAGTRLEIKR
With B4 the “% Inhibition” value [3] was 100% and the Kd (human Sdc2 [8]) was 0.8 nM.

From US20250282885A1 (VST BIO, published 2025)
